The source of these data is patent US20260028417A1 (SICHUAN KELUN BIOTECH BIOPHARMACEUTICAL, published 2026).

Assay [1] concerns the target T1, human HER3 on cells (human, UniProt P21860 20-1342).
T1 construct: whole, on cells; also called T47D; NCI-N87
Nature of the assay: flow cytometry on T47D cells. As for the experimental part:
(§1) Data processing: the Median PE values were exported, then imported into GraphPad Prism 6 software, and EC50 values were calculated.

For assay [2], the target named is T2, monkey HER3 protein (extracellular sequence with six histidines at the C-terminal) (monkey).
T2 construct: Made in HEK293 cells; also called Monkey HER3-His
T2 chain: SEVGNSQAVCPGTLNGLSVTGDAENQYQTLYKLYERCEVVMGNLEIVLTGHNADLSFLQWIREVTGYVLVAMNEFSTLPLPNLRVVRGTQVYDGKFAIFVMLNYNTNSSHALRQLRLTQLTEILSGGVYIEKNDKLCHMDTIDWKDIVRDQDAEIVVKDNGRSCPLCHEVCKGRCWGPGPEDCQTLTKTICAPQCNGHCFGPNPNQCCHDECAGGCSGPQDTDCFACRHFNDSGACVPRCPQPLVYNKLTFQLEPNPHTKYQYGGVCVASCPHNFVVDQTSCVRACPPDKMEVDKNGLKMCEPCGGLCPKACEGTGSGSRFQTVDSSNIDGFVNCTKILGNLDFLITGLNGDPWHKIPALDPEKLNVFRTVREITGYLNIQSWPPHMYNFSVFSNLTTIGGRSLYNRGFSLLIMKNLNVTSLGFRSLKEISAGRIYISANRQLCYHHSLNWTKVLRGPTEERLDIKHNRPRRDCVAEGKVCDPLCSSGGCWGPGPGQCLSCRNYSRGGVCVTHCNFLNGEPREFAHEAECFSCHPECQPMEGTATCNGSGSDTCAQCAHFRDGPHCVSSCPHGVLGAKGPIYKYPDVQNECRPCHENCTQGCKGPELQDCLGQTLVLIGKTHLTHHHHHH
Put plainly: BLI (ForteBio), antibody captured on Protein A sensor, monkey HER3-His in solution, 1:1 global fit. As for the experimental part:
(§2) The measured results were entered into Data Analysis 11.0 software, by using 1:1 mode, and global fitting; the results were analyzed to obtain the association rate, dissociation rate and affinity constant.
For orientation: BLI is a label-free optical method that tracks binding on a fibre tip over time.

For assay [3], the target named is T3, human HER3 protein (extracellular sequence with six histidines at the C-terminal) (human, UniProt P21860 20-643).
T3 construct: extracellular domain; Made in HEK293 cells; also called Human HER3-His
Nature of the assay: ELISA, coated human HER3-His. As for the experimental part:
(§3) The plate was washed 5 times with PBST (0.2% Tween-20), and dried, then 100 μl of TMB (InnoReagents) chromogenic substrate was added to each well, reacted at room temperature for 3-5 minutes, then 50 μl of 2N H₂SO₄ was added to each well to stop the chromogenic reaction, and the absorbance value at OD450 nm was read with a microplate reader. The raw data were imported into GraphPad Prism 6 software for nonlinear curve fitting, and EC50 values were calculated.
(In general: An ELISA detects its analyte on a solid surface through an enzyme-linked reagent.)

Assay [4] has as its target T1, human HER3 on cells. Nature of the assay: flow cytometry on NCI-H358 cells. How it is done:
as §1
(Flow cytometry measures light scatter and fluorescence of single cells or particles in a stream.)

For assay [5], the target named is T3, human HER3 protein (extracellular …). Put plainly: competition ELISA on coated human HER3 protein (1 µg/ml); competitor: biotin-labelled 47A3E3-hIgG (47A3E3-hIgG-Bio, diluted to 15 ng/mL); streptavidin-HRP, OD450. How it is done: (§4) The plate was washed with PBST (0.2% Tween-20) for 3 times, and dried, 100 μl of diluted Peroxidase-conjugated Streptavidin secondary antibody (Proteintech) was added to each well, and incubated at room temperature for 1 hour; the plate was washed 5 times with PBST (0.2% Tween-20), and dried, 100 μl of TMB (InnoReagents) chromogenic substrate was added to each well, reacted at room temperature for 3-5 minutes; 50 μl of 2N H₂SO₄ was added to each well to stop the chromogenic reaction, and OD450 nm absorbance value was read with a microplate reader. The raw data were imported into GraphPad Prism 6 software for nonlinear curve fitting (4-parameter).

Assay [6] has the same target. Put plainly: BLI (ForteBio), antibody captured on Protein A sensor, human HER3-His in solution, 1:1 global fit. How it is done: as §2
Assay [7] deals with T2, monkey HER3 protein (extracellular …). Nature of the assay: ELISA, coated monkey HER3-His. As for the experimental part:
as §3

In assay [8] the target is T3, human HER3 protein (extracellular …). Put plainly: competition ELISA on coated human HER3 protein (1 µg/ml); competitor: biotin-labelled U1-59 (U1-59-Bio, diluted to 50 ng/ml); streptavidin-HRP, OD450. How it is done: as §4
Another assay concerns the target T4, rat HER3 protein (rat, UniProt Q62799 20-643).
T4 construct: whole entry named; also called Rat HER3-His; rat protein
Put plainly: ELISA, rat HER3 protein coated at 1 µg/ml, anti-human IgG-HRP, OD450. How it is done: as §3

In assay [9] the target is T1, human HER3 on cells. Put plainly: cell-based or functional assay.
In assay [10] the target is T1, human HER3 on cells. Nature of the assay: flow cytometry on NCI-N87 cells. As for the experimental part: as §1
Assay [11] has as its target T2, monkey HER3 protein (extracellular …). Put plainly: ELISA, coated monkey HER3 protein, chimeric antibody. As for the experimental part: (§5) The plate was washed 5 times with PBST (0.2% Tween-20). After the plate was dried, 100 μl of TMB (CoWin Biotech) chromogenic substrate was added to each well, reacted at room temperature for 3-5 minutes; 50 μl of 2N H₂SO₄ was added to each well to stop the chromogenic reaction, and absorbance value at OD450 nm was read with a microplate reader. The raw data were imported into GraphPad Prism 6 software for nonlinear curve fitting, and the EC50 values of each antibody binding to human HER3 and monkey HER3 were calculated.

For assay [12], the target named is T3, human HER3 protein (extracellular …). Nature of the assay: ELISA, coated human HER3 protein, chimeric antibody. As for the experimental part: as §5
Assay [13] shares this target. Put plainly: competition ELISA on coated human HER3 protein (1 µg/ml); competitor: biotin-labelled 22B6D2-hIgG (22B6D2-hIgG-Bio, diluted to 3 ng/mL); streptavidin-HRP, OD450. As for the experimental part: as §4
Assay [14] addresses T1, human HER3 on cells. Put plainly: cell-based or functional assay. This is another data set of the same source.
In assay [15] the target is T1, human HER3 on cells. Nature of the assay: competition flow cytometry on adherent cells (cell line not named in paragraph 175); competitor: 22B6D2-hIgG-Bio, final 25 ng/ml; PE streptavidin. From the text: Data processing: the Median PE values were exported, and then imported into GraphPad Prism 6 software for nonlinear curve fitting (4-parameter).
Assay [16] has as its target T1, human HER3 on cells. Nature of the assay: cell-based or functional assay. This is another data set of the same source.
Assay [17] addresses T1, human HER3 on cells. Put plainly: cell-based or functional assay. This is another data set of the same source.

T4 sequence (Q62799 20-643): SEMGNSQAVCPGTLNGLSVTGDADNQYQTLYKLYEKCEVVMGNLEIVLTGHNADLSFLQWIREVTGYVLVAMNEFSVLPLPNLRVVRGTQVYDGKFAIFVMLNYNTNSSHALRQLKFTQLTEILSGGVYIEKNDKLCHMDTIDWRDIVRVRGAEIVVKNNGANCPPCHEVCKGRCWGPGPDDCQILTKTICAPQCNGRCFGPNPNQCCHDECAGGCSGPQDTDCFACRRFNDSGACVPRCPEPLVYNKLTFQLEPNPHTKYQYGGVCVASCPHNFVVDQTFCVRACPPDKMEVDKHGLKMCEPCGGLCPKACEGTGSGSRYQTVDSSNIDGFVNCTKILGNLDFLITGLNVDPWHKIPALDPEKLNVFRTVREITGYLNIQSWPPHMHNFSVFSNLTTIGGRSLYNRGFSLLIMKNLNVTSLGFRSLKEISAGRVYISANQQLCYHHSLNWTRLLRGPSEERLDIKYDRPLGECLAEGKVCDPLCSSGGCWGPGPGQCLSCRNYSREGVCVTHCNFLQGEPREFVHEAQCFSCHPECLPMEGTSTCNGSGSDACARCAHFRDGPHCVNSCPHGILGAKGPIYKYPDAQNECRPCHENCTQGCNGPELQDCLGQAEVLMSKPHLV

B1: 47A3E3-hIgG (anti-human HER3 fully human antibody) (antibody, V domains shown)
VH: EVQLQESGPGLVKPSQTLSLTCAISGDSVSSSQSTWNWIRQSPSRGLEWLGRTFYRSRWYNDYALSMKSRITINPDTSKNQFSLQLNPVTPEDTAVYYCARDTYYYGSGGFDYWGQGSRVTVSS
VL: DIQMTQSPSTLSASVGDRVTITCRASQSLSRWLAWYQQKPEKAPKLLIYKASSLESGVPSRFSGSGSGTEFTLTISTLQPDDFATYYCQQYKNYYSFGQGTKLEIKR
notes: Human IgG1/kappa, expressed in CHO-S cells; also called 47A3E3-hIgG-Bio (biotin-labelled)
Usually EC50 stands for the concentration at which the effect is half-maximal. As a reminder, the Kd is a measure of binding affinity in units of concentration. For orientation: koff means a measure of how fast the partners let go of each other. The term kon denotes the rate constant with which the complex forms. Consider B1, for which the concentration giving a half-maximal response (EC50) came out at 0.0601 µg/mL with human HER3 on cells [1]; 7.13 ng/mL in [3]; 0.0989 µg/mL with human HER3 on cells [4]; 6.66 ng/mL in assay [7]; 0.0923 µg/mL with human HER3 on cells [10]. For the same molecule, the Kd in [2] was determined as 74.8 nM; in [6] it was 29.1 nM. The koff in [2] is 0.0111 s⁻¹; in [6] it was 0.0104 s⁻¹. For the same molecule, the kon came out at 148000 M⁻¹ s⁻¹ in assay [2] and 356000 M⁻¹ s⁻¹ in assay [6]. Moreover, the results for the “IC50 (read off the curve)” value in assay [5] and in assay [8] were about 500 ng/mL and about 100 ng/mL, respectively. Moreover, in the assay with rat HER3 protein, the binding result is “no binding”. Also, in the assay with human HER3 on cells [9], the “ADCC activity, EC50 (Jurkat-NFAT/luciferase-CD16a reporter with CHO-S-hHER3 target cells)” value came out at 22.3 ng/mL.

B2: 47A3E3 (anti-human HER3 chimeric antibody) (antibody, V domains shown)
VH: B1 VH
VL: DIQMTQSPSTLSASVGDRVTITCRASQSLSRWLAWYQQKPEKAPKLLIYKASSLESGVPSRFSGSGSGTEFTLTISTLQPDDFATYYCQQYKNYYSFGQGTKLEIK
B2: the EC50 was determined as 10.1 ng/mL in assay [11] and 0.0096 µg/mL in assay [12].

B3: 100H7D3 (anti-human HER3 chimeric antibody) (antibody, V domains shown)
VH: EVQLVESGGGVVLPGRSLRLSCAASGFTFSRNAMHWVRQAPGKGLEWVAVIWHDGSNKYYGDSVKGRFTISRDNSKNTLYLQMDSLTAEDTAVYYCARDRGASDFRGQGTLVTVSS
VL: DIQMTQSPSTLSASVGDRVTITCRASQSINNWLAWYQQKPEKAPKLLIYKASSLESGVPSRFSGSGSGTEFTLTISSLQPDDFATYYCQQYNSYSLTFGGGTKVEIK
As to B3, the EC50 in assay [11] worked out at 18.7 ng/mL; in [12], 0.0131 µg/mL.

B4: 22B6D2-hIgG (anti-human HER3 fully human antibody) (antibody, V domains shown)
VH: EVHLVESGGGVVQPGRSLRLSCATSGFTFRSYGMHWVRQAPGKGLEWVAVIWYDGSNKYYADSVKGRFTISRDISKNTLYLQMNSLTAEDTAVYYCARYYYDSNGYYDAFDIWGQGTMVTVSS
VL: DIQLTQSPSFLSASVGDRVTITCRASQGISNYLAWYQQKPGKAPKLLIFAASTLQSGVPSRFSGSGSGAEFTLTISSLEPEDFATYYCQQLNSYPITFGQGTRLEIKR
notes: Human IgG1/kappa, expressed in CHO-S cells; also called 22B6D2-hIgG-Bio (biotin-labelled)
For B4, the EC50 worked out at 0.0383 µg/mL with human HER3 on cells [1]; 4.07 ng/mL in assay [3]; 0.0857 µg/mL with human HER3 on cells [4]; 3.63 ng/mL in assay [7]; 0.0446 µg/mL with human HER3 on cells [10]. The dissociation constant Kd turned out to be 49.6 nM in assay [2] and 11.1 nM in assay [6]. Further, the koff in assay [2] turned out to be 0.00825 s⁻¹; in [6] it was 0.00397 s⁻¹. In addition, the kon in assay [2] was 166000 M⁻¹ s⁻¹; in assay [6] it was 357000 M⁻¹ s⁻¹. Moreover, the “IC50 (read off the curve)” value in [13] was about 400 ng/mL; in the assay with human HER3 on cells [15], about 100 ng/mL. In addition, in the assay with human HER3 on cells [14], the “ADCC activity, enhancement against U1-59” value came to 1.86 fold. In addition, in the assay with human HER3 on cells [16], the “IC50 of inhibition of ligand (NRG1)-induced AKT phosphorylation in MCF-7 cells” value came to 91.2 ng/mL. Besides, in the assay with human HER3 on cells [17], the “internalization activity, EC50, HPAF-II cells (flow cytometry)” value came to 29.4 ng/mL. In addition, in the assay with human HER3 on cells [17], the “internalization activity, EC50, MDA-MB-453 cells (flow cytometry)” value turned out to be 22.9 ng/mL. For the same molecule, in the assay with human HER3 on cells [17], the “internalization activity, EC50, NCI-358 cells (flow cytometry)” value amounted to 67 ng/mL. Also, the “internalization activity, EC50, WIDR cells (flow cytometry)” value with human HER3 on cells [17] worked out at 30.1 ng/mL. Moreover, in the assay with human HER3 on cells [9], the “ADCC activity, EC50 (Jurkat-NFAT/luciferase-CD16a reporter with CHO-S-hHER3 target cells)” value is 9.73 ng/mL.

B5: 22B6D2 (anti-human HER3 chimeric antibody) (antibody, V domains shown)
VH: B4 VH
VL: DIQLTQSPSFLSASVGDRVTITCRASQGISNYLAWYQQKPGKAPKLLIFAASTLQSGVPSRFSGSGSGAEFTLTISSLEPEDFATYYCQQLNSYPITFGQGTRLEIK
notes: detected with anti-Rat IgG
As to B5, the EC50 in assay [11] is 7.1 ng/mL; in assay [12] it was 0.0054 µg/mL.

B6: 44A4A11 (anti-human HER3 chimeric antibody) (antibody, V domains shown)
VH: EVQLLESGGGLVQPGGSLRLSCAASGFTFSSYAMNWVRQAPGKGLEWVSSISDSGGSTYYADSVKGRFTISRDNSKNTLYLQMNSLRAEDTAVYYCAKDGGISMVRGVIIEEGYFDLWGRGTLVTSPQ
VL: DIQLTQSPSFLSASVGDRVTITCRASQGISSYLAWYQQKPGKAPKLLIYVVSTLQSGVPSRFSGSGSGTEFTLTISSLQPEDFATYYCHQLNSYPLTFGGGTKVEIK
On to B6, for which the results for the EC50 in assay [11] and in assay [12] were 6.5 ng/mL and 0.0121 µg/mL, respectively.
